Reference: patent US20050282743A1, “Molecular interactions in cells” (Arbor Vita Corporation, priority 2001, published 2005)

Columns and labels:
[1] = target: T1, GST-KIAA1526 PDZ domain 1 (Homo sapiens (Human)), Q9P202; assay: G assay titration, PDZ 5 ug/ml
T1 chain: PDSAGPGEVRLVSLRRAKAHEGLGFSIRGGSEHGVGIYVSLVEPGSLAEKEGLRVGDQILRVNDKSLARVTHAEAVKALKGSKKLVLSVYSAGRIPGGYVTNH

[2] = target: T2, GST-SITAC-18 PDZ domain 1 (Homo sapiens (Human)), Q9H190; assay: G assay titration, PDZ 5 ug/ml
T2 chain: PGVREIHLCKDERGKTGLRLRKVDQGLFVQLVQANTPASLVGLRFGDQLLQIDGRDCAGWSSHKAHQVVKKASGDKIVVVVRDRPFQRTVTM

[3] = target: T3, GST-ZO-1 PDZ domain 1 (Rattus norvegicus (Rat)), A0A0G2; assay: G assay titration, PDZ 5 ug/ml
T3 chain: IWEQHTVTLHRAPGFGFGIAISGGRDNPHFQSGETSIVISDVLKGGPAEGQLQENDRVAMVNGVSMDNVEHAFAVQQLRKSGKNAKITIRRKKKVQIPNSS

[4] = target: T4, GST-SYNTENIN PDZ domain 1 (Homo sapiens (Human)), O00560; assay: G assay titration, PDZ 5 ug/ml
T4 chain: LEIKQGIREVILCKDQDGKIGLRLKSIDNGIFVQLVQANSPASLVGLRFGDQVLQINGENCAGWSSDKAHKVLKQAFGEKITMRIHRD

[5] = target: T5, GST-TIP-1 (Example 3) (human), O14907; assay: ratio of G assay Kd values
T5 chain: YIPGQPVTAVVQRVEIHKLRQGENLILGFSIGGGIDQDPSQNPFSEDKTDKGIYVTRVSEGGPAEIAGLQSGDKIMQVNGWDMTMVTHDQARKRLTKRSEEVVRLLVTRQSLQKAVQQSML

[6] = target: T6, GST-TIP1 PDZ domain 1 (Table 9 insert) (Homo sapiens (Human)), O14907; assay: G assay titration, PDZ 5 ug/ml
T6 chain: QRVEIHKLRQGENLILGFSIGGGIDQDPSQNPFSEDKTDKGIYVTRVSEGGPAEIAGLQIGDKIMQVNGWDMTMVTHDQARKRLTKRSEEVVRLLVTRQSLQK

[7] = target: GST-Atrophin-1 Interacting Protein PDZ domain 3 (Rattus norvegicus (Rat)), O88382; assay: G assay titration, PDZ 5 ug/ml
[8] = target: T7, GST-Connector Enhancer PDZ domain 1 (Homo sapiens (Human)), Q969H4; assay: G assay titration, PDZ 5 ug/ml
T7 chain: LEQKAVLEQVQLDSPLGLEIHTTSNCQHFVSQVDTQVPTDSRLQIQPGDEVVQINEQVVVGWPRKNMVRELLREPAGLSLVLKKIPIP

[9] = target: GST-KIAA1634 PDZ domain 4 (Homo sapiens (Human)), Q5TCQ9; assay: G assay titration, PDZ 5 ug/ml
[10] = target: T8, GST-NeDLG PDZ domain 2 (Rattus norvegicus (Rat)), Q62936; assay: G assay titration, PDZ 5 ug/ml
T8 chain: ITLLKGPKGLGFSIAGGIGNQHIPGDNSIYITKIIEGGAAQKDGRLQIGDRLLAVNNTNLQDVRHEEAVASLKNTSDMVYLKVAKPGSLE

[11] = target: GST-PSD95 PDZ domain 1 (Homo sapiens); assay: G assay titration, PDZ 5 ug/ml
[12] = target: GST-BAI-1 Associated Protein PDZ domain 2 (Mus musculus (Mouse)), Q6RHR9; assay: G assay titration, PDZ 0.3 ug/ml
[13] = target: GST-BAI-1 Associated Protein PDZ domain 4 (Homo sapiens (Human)), Q96QZ7; assay: G assay titration, PDZ 0.3 ug/ml
[14] = target: T9, GST-DLG1 PDZ domain 2 (Homo sapiens), Q12959; assay: G assay titration, PDZ 0.3 ug/ml
T9 chain: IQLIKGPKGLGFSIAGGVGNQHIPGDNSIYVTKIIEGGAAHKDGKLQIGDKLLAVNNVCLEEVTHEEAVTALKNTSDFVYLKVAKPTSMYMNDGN

Sequence of GST-Atrophin-1 Interacting Protein PDZ domain 3 (Rattus norvegicus (Rat)), O88382 (O88382 774-865, tags or fused parts left off): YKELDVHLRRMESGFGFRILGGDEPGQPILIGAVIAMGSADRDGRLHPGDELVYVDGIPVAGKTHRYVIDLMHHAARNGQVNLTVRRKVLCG
Sequence of GST-KIAA1634 PDZ domain 4 (Homo sapiens (Human)), Q5TCQ9 (Q5TCQ9 844-945): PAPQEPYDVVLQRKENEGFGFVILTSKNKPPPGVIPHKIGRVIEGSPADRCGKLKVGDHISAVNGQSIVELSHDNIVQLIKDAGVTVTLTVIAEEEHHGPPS
Sequence of GST-BAI-1 Associated Protein PDZ domain 4 (Homo sapiens (Human)), Q96QZ7 (Q96QZ7 other isoform, or with tags, fused parts or gaps): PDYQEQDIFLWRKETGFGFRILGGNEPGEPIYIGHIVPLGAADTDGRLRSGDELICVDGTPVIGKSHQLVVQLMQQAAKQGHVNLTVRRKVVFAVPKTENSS
Sequence of GST-BAI-1 Associated Protein PDZ domain 2 (Mus musculus (Mouse)), Q6RHR9 (Q6RHR9 455-558): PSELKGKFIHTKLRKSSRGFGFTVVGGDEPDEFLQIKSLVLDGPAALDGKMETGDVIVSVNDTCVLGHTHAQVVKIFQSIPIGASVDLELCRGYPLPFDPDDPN

ILNSIQVMRAQMNQIQSVEV (modifications not checked) [ephrin B2]
Kd [1]: 5 µM
Kd [2]: 4 µM
Kd [3]: 6 µM

KTMPAAMYRLLTAQEQPVYI (modifications not checked) [MINT-1]
Kd [4]: 800 nM

QISPGGLEPPSEKHFRETEV (modifications not checked) [TAX]
fold stronger binding than CD95 [5]: > 3000 fold

AWDDSARAAGGQGLHVTAL (modifications not checked) [LPAP]
Kd [6]: 5 µM

VGTLLLERVIFPSVKIATLV (modifications not checked) [AdenoE4 typ9]
Kd [7]: 100 nM
Kd [8]: 100 nM
Kd [9]: 200 nM
Kd [10]: 100 nM
Kd [11]: 100 nM
Kd [12]: 20 nM
Kd [13]: 100 nM
Kd [14]: 30 nM
